Test system: K4 kissing-loop RNA reporter
Assay: apparent KD of K4 kissing-loop reporter; higher = weaker reporter binding
Conditions: Eterna round: R107
Description: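 RNA-MaP round R107: designed RNA switches with theophylline, tryptophan, arginine or FMN aptamers are transcribed on-chip within common flanks. They are titrated with a labelled K4 kissing-loop RNA reporter in RNA-MaP buffer (100 mM Tris pH 7.5, 80 mM KCl, 4 mM MgCl2), without ligand or with the indicated ligand. Median apparent KD per design.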

[1] = input ligand: theophylline 20 uM
[2] = input ligand: tryptophan 2.4 mM
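Further: bound reporter read as fluorescence of individual clusters on recovered sequencing chips by microscopy, with normalized cluster intensities fitted with a binding model.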

| Sequence | apparent KD of K4 kissing-loop reporter (input ligand: FMN 200 uM) | apparent KD of K4 kissing-loop reporter (input ligand: arginine 13.2 mM) | apparent KD of K4 kissing-loop reporter (input ligand: none) | apparent KD of K4 kissing-loop reporter [1] | apparent KD of K4 kissing-loop reporter [2] |
| --- | --- | --- | --- | --- | --- |
| GUGGAAUUAUGAAAGUGGUUUUAUUAGGAAGGAGCGGCCGAAAGGCCAGGUAGGUCGCCUAUUGACAGUGAUGUUGUUAUAUGGU [#14] | 158 nM | 199 nM | 151 nM | 204 nM | 94.3 nM |
| AGUAGAGCAUCAGAUACCAGACUGAACUGAUGGUAAGGAGUGAUGUUCCUUAAUCAGCUAGUCCCUUGGCAGCUGAUAAUAGUCA [Theo B SS t3] | 251 nM | 253 nM | 268 nM | 183 nM | 222 nM |
| AUAUAAGUCGGAGGAUAUCCAGUGAUGUUAUGUUGUGAUGUUUAGUGAUGUUAGGCAUCAGUGAAGGGAGAAGGCCGUAAGUGAU [APPLE] | 68.6 nM | 53.3 nM | 91.1 nM | 89.2 nM | 78.9 nM |
| UGCUUUAUCAGAAGGAGCGCGUUAUUCAUAAUAAUAAUCAGUGAUGUUGAUAUAUGAUGAUUGCAGGUAGGUCGCUGAUAUAGCU [KL-XARG-B3] | 310 nM | 225 nM | 274 nM | 253 nM | 259 nM |
| UUGUUUAACUGAAGGAGCGGCAAUUGAUACGUAGAUAUAGUGAUGUUAUAUAAGAUAGAGAGCCAGGUAGGUCGCAGAGGUGUUU [ExArgB.R] | 231 nM | 227 nM | 246 nM | 219 nM | 190 nM |
| AAUACUAUCAGAAGGAGCGUGGAAUAUUCAUCUGUAUCUAAUACGAGUGAUGUUCGUAAUUCACAGGUAGGUCGCUGAUUAAUAC [whbob_Ex_Arginine_B_2th158] | 265 nM | 245 nM | 288 nM | 304 nM | 245 nM |
| UAAUAAAUUCCAGCGAUGUCACUCUUCGAAGGAGCGGACGAAAGUCCAGGUAGGUCGCGAAGAGUGAUGUUCUUCGCGGCGCUGG [Omei KL Arginine A Exc A v3] | 167 nM | 115 nM | 183 nM | 204 nM | 174 nM |
| UCGCAAAAGUCGGCCGCCACUCCGGGCCCUAUAAAUGGGCGCAGUGAUGUUGCGGCUAGGCCUCUGAGGACCGGGACUUUGUAGC [Tixelequ] | 221 nM | 119 nM | 58.9 nM | 142 nM | 156 nM |
| UUUGGAGUGGGAGGAUAUCCUAAUAUGGGUGAUGUUAGCGAUGUUGAAGGUGUAGUGAUGUUAUGCGGAGAAGGCCCACUGUAGA [BDazzled - #19 - Exc. FMN B] | 95 nM | 78.8 nM | 131 nM | 85.6 nM | 89.2 nM |
| ACCUACCAUUAGUGAUGUUAAUGGACGGAAGGAGCGCGGAUAUCUGCAGGUAGGUCGCCGAAGGCUAGACAUUGUCUAGCCAUUA [AK1 SS Arginine A] | 149 nM | 113 nM | 131 nM | 107 nM | 120 nM |
| CUGCCGUGCCAUGGGCCAGUGAUGUUGGAACGAGGACCGGUACGGCCGCCACUCGCUUAGCGUCAAAGGCGUCCCGAAUAGAAAG [theeternabot_exclusion_KL_Trp_A_14] | 374 nM | 230 nM | 340 nM | 317 nM | 374 nM |
| AGUCCACUCUAAAGAGUGGACCUAAGGGAUACCAGUGAUGUUGGUCACCCUUGGCAGCCCGCUGUCAUCGAUAAAGAUGGCAGUA | 125 nM | 107 nM | 112 nM | 121 nM | 117 nM |
| GUAUCGCUAGGAGGAUAUUCCAUUUUACAUAGAAAUGGCUAUGCGGAGUGAUGUUCCGAUUUACGGGAAGAAGGCCUAGUGAUAC [FMN B 21] | 137 nM | 119 nM | 131 nM | 115 nM | 121 nM |
| UGACAUUGCUCAGAUACCAGACUUGAGGAUCACCCAAGUGCCAAAUAAACGUACAUAAAAGUCCCUUGGCAGCUGAGCAAUGUCU [TheoBX 11] | 72.9 nM | 46.3 nM | 41.3 nM | 99 nM | 33.4 nM |
| AAAAUAAAUAGCAGUCAUGGAGUGAUGUUCCGAGGACCGGUACGGCCGCCACUCGACCAUCAUAAGAUGGAAUGGCGAGACUGCA [#SwitchBubble 22 #K4Early] | 252 nM | 288 nM | 249 nM | 362 nM | 520 nM |
| AGUGAUAUAUGAGGAUAUGGGUUUGUUAAUGAGUUUGUUUUAGUGUUGUUUGGUUAGUGAUGUUAUUUAGAAGGCGUGAGUGAUG [vxxexmullin] | 130 nM | 80.5 nM | 82.4 nM | 127 nM | 72 nM |
| GCCGUACGCAUGGAUACCAGUCUACAUCGCAGUGAUGUUGCGUAGUUCAGAUAGAUUGCCGACCCUUGGCAGCCAUGCGUACGGC | 133 nM | 109 nM | 111 nM | 109 nM | 114 nM |
| UUUGGUAUCUCGGCCGCCACUCGUGGGAAAUGGGCCUCAGGGAUAUAGUGAUGUUAUGUAAAGAAGAGGACCGGGAGAAGGAAGG [ExTryptoB.Dk] | 343 nM | 232 nM | 355 nM | 481 nM | 208 nM |
| ACGCUAGCUACCGAAAGGUAGCUAGCGAGUGAGGAUAUGUGGAAACACAGAAGGCACAGCACAGUGAUGUUGUGCGGCGAAAGCC | 587 nM | 249 nM | 932 nM | 522 nM | 729 nM |
| GGGAAUUACGGAGGAUAUGCACUGAGGAGGAGAAUAUAGUGAUGUUAUAUAAGAGGAAGGAGAAGAGUAGAAGGCCGUGGAAAGG [SSFMNB.D] | 226 nM | 161 nM | 203 nM | 217 nM | 141 nM |
| UAAGAAUAAGUAGCAGUGAUGUUGCUACUACGAGGACCGGUACGGCCGCCACUCGAAUACGAGUGGAAGUAGCAACUACCACUCA [(H1)-(H2)-(Trp1)-(Trp2)-(T)'-(H)'-(T)''_Design7] | 114 nM | 96.2 nM | 125 nM | 88 nM | 135 nM |
| GAUGAACUAUUCGAUACCAGACUACAUGAGUGAUGUUCAUGUGUGUCAAUGUCUAUGUCAGUCCCUUGGCAGCGAAUAGUUUAUC [KL-XTheo-B27] | 146 nM | 108 nM | 125 nM | 141 nM | 125 nM |

| Sequence | apparent KD of K4 kissing-loop reporter (input ligand: FMN 200 uM) | apparent KD of K4 kissing-loop reporter (input ligand: arginine 13.2 mM) | apparent KD of K4 kissing-loop reporter (input ligand: none) | apparent KD of K4 kissing-loop reporter [1] | apparent KD of K4 kissing-loop reporter [2] |
| --- | --- | --- | --- | --- | --- |
| CCUCACGUAGGACUAGUGAUGUUAGACUACCGAGGACCGGUACGGCCGCCACUCGUCGUACAAGAUAACCUUCCGCCAGUAUACA | 113 nM | 91.8 nM | 99.9 nM | 83.6 nM | 108 nM |
| AAUCGAGUGAUGUUCGAUGUAGUGCAUUCAGAGGAUAUAGGAUGGGCUAGAAGGCUGAAAAGUGCUUCGAGUGAUGUUCGAAGAU [Exclusion FMN A GF 4] | 47.1 nM | 49 nM | 76.7 nM | 49.7 nM | 56 nM |
| UACACGACUCGUGUAAACCGAGGUAACAGGCAGGAUAUGUAACGGAACAGAAGGGCCAUGUUGCGUGUCCAGUGAUGUUGGAUGC [Vetedile] | 170 nM | 231 nM | 270 nM | 272 nM | 246 nM |
| UUGGAGUGAUGUUCCAUGUCUUGAGCCGAAGGAGCGCCUUUCUAGGCAGGUAGGUCGCGGCAGAAGGUACCAGUGAUGUUGGAAA [Same State Arginine A GF9] | 161 nM | 225 nM | 283 nM | 222 nM | 164 nM |
| UGUACCGAGUCAGGAUAUCAUAAUAAUCGAGUGAUGUUCGAAUAACGACUGACAAAGUCGGUCGAUUGAGAAGGGACUUGGUACU [FmnBS 7 #SwitchBubble #StaticStem] | 150 nM | 342 nM | 444 nM | 362 nM | 378 nM |
| AUUUUUUUAUCAGGAUAUUAGUGAUGUUUGUUUUUGUUAGUGAUGUUGAUAUUUGUUUUAUGUAUUUAAGAAGGGAUUGAGAUGU [sfsmullin] | 46.4 nM | 15.5 nM | 28.2 nM | 19.9 nM | 42.4 nM |
| CACAAUUAAUUACAGUGAUGUUGUAAUCUGCGAGGACCGGUACGGCCGCCACUCGGGCUUGUAGGGCGCCCACAUUCUUAUACUA [theeternabot_sameState_KL_Trp_A_29] | 447 nM | 348 nM | 426 nM | 428 nM | 360 nM |
| AGAGUUAUAUGAGGAUAUGGGAUAGUAACUGAGUGAGUUAUAGUGUAGUUUGUUUAGUGAUGUUAUUUAGAAGGCGUGAGUGAUG [wwwsemullin] | 162 nM | 121 nM | 147 nM | 182 nM | 107 nM |
| GCUAAGGAGUGAUGUUCCAAGUGAUGUUAACGAGGACCGGUACGGCCGCCACUCGAUACGGCCGGAAAGUAAGAUAAACUACAGC [Same State - Tryptophan A (Freestyle 5)] | 98.6 nM | 72.6 nM | 93.2 nM | 89.3 nM | 82.8 nM |
| GUUACGCAUGGAAGGAGCGCAGGCUCAACAAAUAGCUCAGUGAUGUUGAGCAUAUUAAAUCUGCAGGUAGGUCGCCAUGUGUAAC [Ex Arginine B K4 24] | 498 nM | 500 nM | 504 nM | 559 nM | 581 nM |
| UGCAGUGAUGUUGCUAUUUUUCUUGAUUAACGAGGACCGGUACGGCCGCCACUCGAUUUCUCUCUAGUCCAGUAUGUUGUUUGAU [whbob_EX_Tryp_A_t5] | 96.2 nM | 124 nM | 99.8 nM | 125 nM | 82.9 nM |
| AUUAAGAUAUGAGUGAUGUUUAUGUCCGAAGGAGCGUGCGAAAGUACAGGUAGGUCGCGGAUGUGAGUGAUGUUUAUGUAAGCGU [KL-XArg-A15 #analogue] | 109 nM | 33.8 nM | 97.1 nM | 65 nM | 83.4 nM |
| AAGGGCUAGGCGGCCGCCACUGGUCGUGUACACAUACGAACCAGUGAUGUUGGUAUUGUAUGCGACAGGACCGGGCCUAGCCGAA [Exclusion - Tryptophan B (Freestyle 27)] | 313 nM | 194 nM | 249 nM | 364 nM | 291 nM |
| UGUCAUUGGUCUGAUACCAGUUGGGACGAAUACGUCCAACUGGAGUGAUGUUCCUAAAACAACCCUUGGCAGCAGACCGAUGACU [TheoBS 13 #SwitchBubble 13 #StaticStem] | 870 nM | 782 nM | 1040 nM | 638 nM | 750 nM |
| GAUUCAGUGAUGUUGGAAGGCGAGCGGGAUACCAGCCAAGACUCAGGCCCUUGGCAGCCCACAUAUCCCACGUAGAUAGUAGCUC [Same State - Theophylline A (Freestyle 13)] | 230 nM | 104 nM | 147 nM | 134 nM | 142 nM |
| AGUGUUGUAUGACGGUUUGUCACUUAGGAUCAGGAUAUAUAAACAAAUAGAAGGGAUGGCGGAGUGAUGUUCCGCCGGCCGCCAU [FMN A Exl V9] | 110 nM | 101 nM | 104 nM | 106 nM | 94.3 nM |
| AAGGGCUAGGCGGCCGCCACUGGUCGUGUACACAUACAGACCAGUGAUGUUGGUAUUGUAUGCGACAGGACCGGGCCUAGCCCAA [Exclusion - Tryptophan B (Freestyle 29)] | 267 nM | 230 nM | 263 nM | 247 nM | 445 nM |
| UGCUGUCAAUAAGAUACCAGUUGGACUGAGUGAUGUUCAUCCAUUAUAUCUAUUCUGCUUAACCCUUGGCAGCUUGAUGACGUUU [theeternabot_exclusion_KL_Theo_B_6] | 174 nM | 149 nM | 180 nM | 191 nM | 182 nM |
| AAAAGAAAGUCGGCCGCCACUCAACGCAGUGAUGUUGCAAGACAGAAGAGCAGUGAUGUUGCCCAGAGGACCGGGACACAAGGCC [Same State Typtophan B GF 3] | 352 nM | 384 nM | 444 nM | 401 nM | 309 nM |
| GGUGCCGGGCAAGGAUAUUAGUCGAGUGAUGUUCGGCGGUCCAAGUCGUUGCGGCGUUAAACCCUUUGAGAAGGUGCCCGGUGCC [#2 Exclusion - FMN B Attempt #1 (HarryS)] | 198 nM | 144 nM | 193 nM | 195 nM | 163 nM |
| CAAACGGGUUGGCUUGGAGACUGCAGACGCAAGGAUAUCGCGAAGACGAGAAGGUGCGGGCCUGGUAGUGAUGUUACAGUUUGGU [theeternabot_sameState_KL_FMN_A_21] | 358 nM | 326 nM | 395 nM | 367 nM | 254 nM |

Source: the supplement of paper PMC9170038
